This is an account of results in article PMC6091153.

Where “and” joins values, the source holds several entries; their conditions need not be identical. Equal entries are not always repeated.

By stoichiometry N is commonly meant a count of units in the complex or per binding partner.

This experiment concerns the target Saccharomyces cerevisiae glutaredoxin Grx6 (recombinant, without the signal peptide) (S. cerevisiae) (UniProt Q12438). Nature of the experiment: SEC; gel filtration of freshly purified recombinant protein on a Superdex 75 column, elution followed at 280 nm and 430 nm; the dimer peak is brown (Fe-S centre); FeSO4·7H2O and (NH4)2Fe(SO4)2·6H2O added in one run (more dimer and tetramer). Background: Size exclusion chromatography separates by hydrodynamic size, large species first.

Turning to “Saccharomyces cerevisiae glutaredoxin Grx6 (recombinant, without the signal peptide) (from UniProt Q12438 30-231) (natural protein)”, the stoichiometry N is 4 and 2.
